Five molecules from patent US9757471B2, “Protozoan variant-specific surface proteins (VSP) as carriers for oral drug delivery” (priority 2012, dated 2017) can be followed below.

Data set [1] is classed as physicochemical. Conditions: in the presence of VSP; no degradation after incubation at pH 2.
Protocol: To assess in vitro the capacity of VSP carriers to protect IL-2 from degradation, the capacity of a VSP carrier (e.g., recombinant VSP1267) to protect human IL-2 from conditions similar to those present in the GIT was evaluated. The capacity of the VSP to protect IL-2 from degradation caused by extreme pHs or by enzymatic proteolysis (e.g., by trypsin and/or pancreatine) was assayed using the methods described in the Examples above.
IL-2 alone or mixed with VSP carrier was incubated at different pHs or with different concentration of proteolytic enzymes such as trypsin. The presence of IL-2 after the pH and proteolyitc enzyme challenges was detected using Coomassie stain of SDS-PAGE gels.
Data set [2] is classed as physicochemical. The procedure: (§1) To evaluate in vitro the capacity of a VSP carrier to protect bioactive peptides from degradation, we evaluated the capacity of recombinant VSP1267 to protect human growth hormone (Somatotropin, hGH) (Biosidus, Argentina), an 191 amino acids long protein, from conditions similar to those present in the GIT. Similar to the previous analysis performed with the VSPs alone, the capacity of the VSP to protect hGH from degradation caused by extreme pHs or by enzymatic proteolysis was assayed.
The anti-hGH monoclonal antibody was subsequently used to determine the degree of resistance of hGH to different pHs. hGH was incubated at different pHs (1.6, 2.0, 3.8, 5.0, 5.8, 7.0, 8.0, 9.0, 10.0, and 11.0) for 90 minutes.

Data set [3] relates to trypsin. The data set can be described thus: hGH stability to trypsin, without or with VSP carrier (Western blot, silver staining). It is filed as in vitro ADME. The procedure:
as §1
hGH was also treated for 90 min at 37° C. with several concentrations of trypsin (0, 100, 150, 200, and 500 μg/mL). […] This protective effect was observed up to a 150 μg/mL trypsin concentration.

Data set [4] can be described thus: Serum hGH levels in mice after oral administration of hGH alone or with VSP carrier. The note with it: hGH alone, oral 50 to 800 μg, female Balb/c mice. It is filed as in vivo. The procedure: hGH serum levels were tested after oral administration, evaluating different doses and measurement times, to determine the best dose for combination with the VSP carrier VSP1267 (FIG. 11A). As in previous experiments, female Balb/c mice, 7 weeks old, were left without food intake for 2 hours and then received the doses indicated in […] (i.e., 50, 100, 200, 400 and 800 μg of hGH). In a parallel experiment, hGH was administered subcutaneously (FIG. 11A, inset). […] Thus, a direct relationship between absorption and these variables (time and concentration) could not be determined.

Data set [5] relates to trypsin. It is filed as in vitro ADME. The note with it: hGH combined with chimeric VSP protein (SEQ ID NO: 589) derived from T. thermophila and G. intestinalis. An excerpt: (§2) To determine if VSP-like proteins retain the Giardia VSP extracellular domain properties, and therefore can be used as VSP carriers or as components of chimeric VSP proteins, a DNA fragment of a Tetrahymena thermophila VSP-like protein encoding a VSP domain (TTHERM_00826790 hypothetical protein; SEQ ID NO: 590) was modified using stander molecular biology techniques to generate a chimeric VSP. The chimeric VSP protein (SEQ ID NO: 589) comprised the sequences encoding the signal peptide (SEQ ID NO: 591) of Giardia intestinalis VSP1267 and a His6 purification tag fused respectively to the amino terminus and carboxy terminus of the sequence of a VSP domain (SEQ ID NO: 592) located between amino acid positions 977 and 1465 of the VSP-like protein from Tetrahymena (SEQ ID NO: 590).
(§3) The chimeric VSP was cloned into a bacmid for expression in Sf9 insect cells. Once expressed and secreted to the culture supernatant, the chimeric VSP protein was purified on a Nickel column as described in Example 2.
(§4) The chimeric VSP protein was used to verify the stability of hGH to pH and trypsin sensitivity.

The format of data set [6] is physicochemical. Conditions: hGH combined with chimeric VSP protein (SEQ ID NO: 589) derived from T. thermophila and G. intestinalis.
Source text: as §2, §3, §4

Data set [7] concerns trypsin. Kind of data set: Western blot of VSPs after trophozoite trypsinization. It is filed as in vitro ADME. The note with it: trophozoites, trypsin 200 μg/mL and 2 mg/mL, 90 min at 37° C., PBS pH 7.4, Western blot. The procedure:
Giardia parasite clones WB-9B10, WB-1267 and GS-H7 (expressing, respectively, the VSP9B10, VSP1267 and VSPH7 VSPs) were resuspended in PBS at pH 7.4 and treated for 90 min at 37° C. with variable concentrations of trypsin (200 μg/mL and 2 mg/mL). Then, the parasites were lysed and equivalent protein amounts were applied to each lane in the SDS-PAGE gels.

A short description of data set [8]: pH resistance assay of VSPs on Giardia trophozoites (immunofluorescence). It is filed as physicochemical. Conditions: trophozoites in RPMI, pH 1 to pH 10, 90 minutes, immunofluorescence microscopy. The procedure: To determine whether VSPs are resistant to variable pH and to proteolytic digestion, two different Giardia isolates (clonal trophozoite populations) were treated with trypsin and with variable pH and the effect of those conditions on the VSP expressed by each isolate were monitored using immunofluorescence assays.
For the pH resistance assay. Giardia parasites were resuspended in RPMI cell culture medium at variable pHs, from pH 1 to pH 10. in 1 pH unit increments (only pH 1, 3, 5 and 10 are shown in FIG. 2B). Giardia parasites were kept at the different pHs for 90 minutes, washed, and then incubated with the corresponding monoclonal antibody.

“Also recorded” adds a separate entry of the source.

As for “IL-10: human interleukin-10, anti-inflammatory cytokine”, the “resistance to low pH” value in data set [1] is “resistant”.

As to Somatotropin [hGH], the “change of hGH degradation levels with VSP carrier at different pHs” value in data set [2] is reported as “no significant changes”. The “protection of hGH from trypsin degradation” value in the data set with trypsin [3] (VSP carrier added at 3:1 VSP/hGH (1:3 hGH to VSP) ratio) was “able to protect hGH from trypsin degradation; also recorded: protects hGH from trypsin degradation”. Also, the “hGH degradation by trypsin” value in the data set with trypsin [3] (hGH alone, 90 min at 37° C., trypsin 100 to 500 μg/mL) was “rapidly degraded even at the lowest protease concentrations; also recorded: completely proteolyzed”. Also, in data set [4], the “oral absorption of hGH (serum levels) compared with subcutaneous” value is on record as “much lower levels than subcutaneously absorption”; the “variability of oral absorption regarding times and amounts” value was “highly variable”. In addition, in the data set with trypsin [5], the “protection of hGH from degradation by trypsin” value was “able to protect hGH from degradation”. The “protection of hGH from degradation at low pH” value in data set [6] is “able to protect hGH from degradation”.

B1: VSP1267: Giardia variant-specific surface protein expressed by clone WB-1267 (Uniprot:Q07317) (protein, listed as Giardia intestinalis)
chain: MLLIAFYLILSTFAVDCKNSGNSCEAGQCDTIGDTEICMQCNQGKVPINGICTAHSEEAVTNAGCKKNGGTNIEESDKVCGQCGNGYFLHKGGCYKIGEAPGNLICADEASNPGARTAGVCGACKDGYYKNSDAVATADSCIACEDANCATCGGAGENKCTKCIDGYFVGATGNEGGCIKCDATTGPNSYKGVAGCAKCEKPKNAGPAKCIECAADYLKTEADEQTSCVSEAVCREGKTHFPTTDSAGGNKKVCVSCGTTNNGGIENCGECTSKESAARAGTEITCTKCSSNNLSPLGDACLTDCPAGTYAVSGDSGSVCKPCHNTCAGCQTDDRETSCTACYPGYSLLYESNGATGRCVKECTGAFITNCADGQCTANVGGAKYCTQCKDGYAPIDGICTAVAAAGRDVSVCTATGGKCTACTGNYALLSGGCYNTQTLPGKSVCKAVANSNDGKCKTCANGQAPDPATNFCPLCDSTCAECSTKNDADACTKCFPGYYKTGNKCIKCTESSNNGKKIDGIPDCLSCEAPINTGPVICYVKTDGTSDDNSGNGGDSTNKSGLSTGAIAGISVAAFVVVAGLVGFLCWWFICRGKA
In the case of B1, the “VSP survival of exposure to trypsin” value with trypsin [7] is on record as “able to survive exposure to trypsin”.

B2: VSP9B10: Giardia variant-specific surface protein of the WB isolate, clone WB-9B10 (Uniprot:Q9GS24) (protein, listed as Giardia intestinalis)
chain: MFGSFVLAGVLVQIAWAGKATERAQEAQCADNTNCAAEACNVLIGGKLYCSRCNTGFVPINGQCADKEGATDKCKDGSGGDTADQTCGQCAEQTFMYKGGCYEAAQQPGQTMCQAADAGVCTQAAQGYFVPPGADASHQSVIPCGDEEEITVKNDKKYKGVLHCTRCNAPTEAADANAKAATCTACQADRYLKTAKDQATSCVTEQECTGTEGFFAKNGGTKTCEACAETCKTCKTEAAKCTSCKDDKPYLKKDNGSDTGTCVTEAECKTGNTHYPDDTEPKTCKTCAEGTSDGCATCEKGADGAVACKTCGNQKKVQPNKKGCVENCPSNSNDKKTPGTCECVEGYVPEEAGTGCTKKPDPPAAPCNTPGCKTCSEPKTSKEVCTECEDPKALTPTGQCIYGCEHLEGYYEGTSEGGKKACKKCEVENCLLCNENGQCETCKDGYYKKETACAKCDTSCKTCANGEPNGCTSCEAKKALSYEGEGNTGTCKSECKPGTNNCEKCELTVDGTAYCSKCKDANQFPQNGVCSAAAGKAITCTTKGTGVCDKCANGLLRMNGGCYETTKFPGKSVCEEAASAGDTCQVEAPGYHLNNNDLVTCSAGCKTCTSNTVCTECMDGYAKTDNKCTKCATGCATCAGSASNCDTCSTGYYKYKNACVSCTESNSDKTITGVANCANCAPPLNNKGSVLCYLVQSGENTNKSGLSAGAIAGIAVAVIIVVGGLVGFLCWWFMCRGKA
Take B2: the “VSP epitopes after incubation at variable pHs” value in data set [8] is reported as “remained intact”. The “VSP survival of exposure to trypsin” value in the data set on trypsin [7] was “able to survive exposure to trypsin”.

B3: VSPH7: Giardia variant-specific surface protein of the GS/M isolate, clone GS-H7 (Uniprot: Q24992) (protein, listed as Giardia intestinalis)
chain: MFLLINCLIASTLAGACSTTQANCVAEKCEMVGETEICTQCKQNYVPINGVCEAAASSNTKCQKASADEASDQTCGKCLSTTFMYKGGCYDKTGNLGRIICKTEGSDAGKCGACNDEKGFFDNPDAANNVDSCISCGDATGVTIPGSSTKTYKGVAGCAKCTKPSQISENTGTKEATCTECNANLYLKAVSSPTSATSCVSAEDCKTGYFPTTDTTDSKKKCLTCSTADKGGIDGCSACELLPSTTRASTVLISCSACSTNNLSPLKNECMQDCPAGTYADSNVCKPCHTSCASCKGDNTESSCTACYPGSVLSYGTDNTKGTCIAECTGKYLENCADGQCTATIAGSKYCSKCKSGFVPVNGLCVSAETARAAPPGSTPDKTNGVCTACTEKYFLESGGCYQAEKFPGNTLCTTADAGKCTTCANGQDKDSNGSCPACPTNCASCAKDNTKTCNKCFSGYYLDTAKACKKCSETSGNIQGVENCISCLAPTSPQSSTPVTCYVKTSGGGSGDNSTGGDSGPNLSSGAIAGISVAVIVVVGGLVGFLCWWFVCRGKA
Regarding B3, the “VSP epitopes after incubation at variable pHs” value in data set [8] was “remained intact”. The “VSP survival of exposure to trypsin” value with trypsin [7] is reported as “able to survive exposure to trypsin”.
